Measured values from article PMC7706699 (Genes & Development, 2020).
One block for each binder: values may come before it. Ends that are not written are not given here. * marks the point of attachment. Fluorescein(5-Mal) = O=C1OC2(c3ccc(O)cc3Oc3cc(O)ccc32)c2ccc(N3C(=O)CC(*)C3=O)cc21

What was measured:
[1] = target: human CPSF30 full-length (residues 1–244) Y127A mutant (human, UniProt O95639-2 1-244, Y127A); assay: SEC
[2] = target: human CPSF30 full-length (residues 1–244) Y151A mutant (human, UniProt O95639-2 1-244, Y151A); assay: SEC
[3] = target: T1, human CPSF30 ZF2–C terminus (residues 62–244), wild type (human, UniProt O95639-2 62-244); assay: SEC
[4] = target: T2, human CPSF30 (residues 62–244) Y127A mutant (human, UniProt O95639-2 62-244, Y127A); assay: SEC
[5] = target: T3, human CPSF30 (residues 62–244) Y151A mutant (human, UniProt O95639-2 62-244, Y151A); assay: SEC
[6] = target: human CPSF30 ZF4–ZF5 (residues 114–173) (human, UniProt O95639-2 114-173); assay: crystal structure
[7] = target: CPSF30 (full-length, Y127A)–hFip1 (residues 79–200) complex (human, UniProt O95639-2 1-244; Q6UN15 79-200, Y127A); assay: SEC
[8] = target: CPSF30 (full-length, Y151A)–hFip1 (residues 79–200) complex (human, UniProt O95639-2 1-244; Q6UN15 79-200, Y151A); assay: SEC
[9] = target: CPSF30 (full-length, wild type)–hFip1 (residues 79–200) complex (human, UniProt O95639-2 1-244; Q6UN15 79-200); assay: SEC
[10] = target: T1, human CPSF30 ZF2–C terminus (residues …); assay: fluorescence polarisation
[11] = target: T2, human CPSF30 (residues 62–244) Y127A …; assay: fluorescence polarisation
[12] = target: T3, human CPSF30 (residues 62–244) Y151A …; assay: fluorescence polarisation

stoichiometry N [1]: 1 hFip1 per CPSF30 | stoichiometry N [2]: 1 hFip1 per CPSF30
B1: hFip1 (residues 79–200) (domain or fragment, human, UniProt Q6UN15 79-200, looked up)
chain: TETEDDSDSDSDDDEDDVHVTIGDIKTGAPQYGSYGTAPVNLNIKTGGRVYGTTGTKVKGVDLDAPGSINGVPLLEVDLDSFEDKPWRKPGADLSDYFNYGFNEDTWKAYCEKQKRIRMGLE

stoichiometry N [3]: 2 hFip1 per CPSF30 | stoichiometry N [4]: 1 hFip1 per CPSF30 | stoichiometry N [5]: 1 hFip1 per CPSF30 | stoichiometry N [6]: 2 hFip1 per CPSF30
Binder: SFEDKPWRKPGADLSDYFNYGFNEDTWKAYCEKQKRIRMGLE (domain or fragment, human, UniProt Q6UN15 159-200, looked up) [hFip1 (residues 159–200)]

stoichiometry N [7]: 1 PAP per CPSF30–hFip1 complex | stoichiometry N [8]: 1 PAP per CPSF30–hFip1 complex | stoichiometry N [9]: 2 PAP per CPSF30–hFip1 complex
B2: catalytic module of human poly(A) polymerase α (residues 1–524) (domain or fragment, UniProt P51003 1-524, looked up)
chain: MPFPVTTQGSQQTQPPQKHYGITSPISLAAPKETDCVLTQKLIETLKPFGVFEEEEELQRRILILGKLNNLVKEWIREISESKNLPQSVIENVGGKIFTFGSYRLGVHTKGADIDALCVAPRHVDRSDFFTSFYDKLKLQEEVKDLRAVEEAFVPVIKLCFDGIEIDILFARLALQTIPEDLDLRDDSLLKNLDIRCIRSLNGCRVTDEILHLVPNIDNFRLTLRAIKLWAKRHNIYSNILGFLGGVSWAMLVARTCQLYPNAIASTLVHKFFLVFSKWEWPNPVLLKQPEECNLNLPVWDPRVNPSDRYHLMPIITPAYPQQNSTYNVSVSTRMVMVEEFKQGLAITDEILLSKAEWSKLFEAPNFFQKYKHYIVLLASAPTEKQRLEWVGLVESKIRILVGSLEKNEFITLAHVNPQSFPAPKENPDKEEFRTMWVIGLVFKKTENSENLSVDLTYDIQSFTDTVYRQAINSKMFEVDMKIAAMHVKRKQLHQLLPNHVLQKKKKHSTEGVKLTALNDSSLD

Kd [10]: 0.69 ± 0.31 nM | Kd [11]: 220 ± 32 nM | Kd [12]: 1.8 ± 0.4 nM
Binder: C(Fluorescein(5-Mal))FEDKPWRKPGADLSDYFNYGFNEDTWKAYSEKQKRIRMGLE (domain or fragment, human, UniProt Q6UN15 159-200, looked up) [hFip1 (residues 159–200) S159C/C189S mutant, FAM-labeled]
